Laboratory results published in patent US12012599B2, “Compositions and methods for modulating left-right differentiation factor (LEFTY) and bone morphogenic factor (BMP)” (CZ Biohub SF LLC, priority 2018, dated 2024).

Columns and labels:
mammary epithelial cells = test: 3D organotypic mammary organoid formation; type: cell-based, mouse; conditions: Wnt-dependent organoid culture
Experimental: FIGS. 8A-8D. Autocrine and paracrine effects of NODAL and LEFTY1 in mammary epithelial cell populations. […] The sorted cells were grown in the 3D organotypic assays to test their organoid formation potential in the presence of NODAL. […] Each dot represents an organoid (n=3). […] Data are represented as median±S.D. Statistical analysis, One-way ANOVA with Dunnet's adjustment, **p<0.01.
FIGS. 9A-9F. Opposing effects of LEFTY1 and BMP7 in mammary organoid formation. […] Data are represented as median±S.D. Statistical analysis, one-way ANOVA with Dunnet's adjustment, *p<0.05; **p<0.01; ***p<0.001.
Since LEFTY1 and BMP7 were able to affect the branching of mammary glands, we hypothesized that the LEFTY1/BMP7 signaling axis may affect the proliferation of mammary epithelial cells. We exposed freshly dissociated mammary epithelial cells to NODAL, LEFTY1, BMP7 and CRIPTO-1 in a modified Wnt-dependent in vitro organoid culture system that was optimized for progenitor cell propagation (Zeng & Nusse, Cell Stem Cell 6, 568-577 (2010) and Jamieson et al., Development 144, 1065-1071 (2017)). In Xenopus, Wnt signaling controls the expression of Nodal and Cripto-1 during gastrulation. Consistent with the evolutionary conservation of the interaction between the Nodal and Wnt pathways (Branford et al., Curr Biol 12, 2136-2141 (2002)), NODAL had no effect on organoid formation in our Wnt-driven culture system (FIG. 8A).
In organoid cultures, the basal cells give rise to mixed phenotype colonies of luminal and basal cells. To prevent the formation of LEFTY1-expressing cells during organoid formation, genetic knockdown of LEFTY1 was done. To knock-down mouse LEFTY1, pSICO-R lentiviral vector was used (Ventura, PNAS, 2004). Different shRNAs were designed and cloned into pSICO-R. The target sequences of the shRNAs cloned were GGACAAGGCTGATGTGGAA (SEQ ID NO: 14) and GCAGGTTCCTGGTGTCAGA (SEQ ID NO: 15). The efficiency of knock-down was tested by transfecting HEK293T cells with pSICO-R-shLEFTY1 constructs with pEGFP-C3-LEFTY1 at 1:4 and 1:20 ratio. Decrease on GFP signal was used to calculate the percentage of inhibition of the shLEFTY sequences. […] (p<0.001 and p<0.01, respectively) (FIGS. 8C-8D and FIGS. 9E-9F).

pSMAD2 = test: Immunofluorescent pSMAD2 positive cells in mammary glands exposed to ligand-secreting fibroblasts; type: in vivo, mouse; conditions: basal and luminal compartments
Experimental: FIGS. 4A-4I. LEFTY1 inhibits the phosphorylation of SMAD2 and SMAD5 in basal mammary epithelial cells. FIGS. 4A-4C show exemplary quantification of pSMAD2 and pSMAD5 positive cells within the luminal and basal cells of mammary glands isolated from mice that were injected with control or LEFTY1-secreting L1 fibroblasts. Immunofluorescent detection of pSMAD2 or pSMAD5 proteins was used to visualize positive cells. KRT8 and SMA were used to determine the luminal or basal cells, respectively. […] Immunofluorescent detection of pSMAD2 or pSMAD5 proteins was used to visualize positive cells. KRT8 and SMA were used to determine the luminal or basal cells, respectively. FIGS. 4H-4I show representative images of the quantified sections for pSMAD2 and pSMAD5 analysis (Magnification, 400×). Data are represented as median±S.D. Statistical analysis, Student's T-test, n.s. non-significant; ****p<0.0001.

pSMAD5 = pSMAD5 immunofluorescence in MDA-MB-231; type: cell-based; conditions: 50 ng/mL BMP7 30 minutes, absence or presence of LEFTY 200 ng/mL
Experimental: (§1) FIGS. 20 and 21 are data from an experiment in which the breast cancer cell line MDA-MB-231 was plated and serum starved for 24 hours. 50 ng/mL BMP7 was added for 30 minutes to activate pSMAD5, either in the absence or presence of exogenous LEFTY (200 ng/mL). LEFTY-BMPR2 interaction, BMP7-BMPR2 interaction (as visualized by Proximity Ligation Assay, red), pSMAD5 status (As visualized by Immunofluorescence, green) were monitored and captured.
as §1, with “Breast” for “FIGS. 20 and 21 are data from an experiment in which the breast”, “(200 ng/mL) and LEFTY Antagonist (sc7408p) increasing in dose from 1x to 256x (x=25” for “(200”

B1: LEFTY1: left-right determination factor 1, secreted TGF-β superfamily protein; generic LEFTY may mean LEFTY1 or LEFTY2 (protein, UniProt O75610 77-366, looked up)
Left-right determination …: RFSQSFREVAGRFLALEASTHLLVFGMEQRLPPNSELVQAVLRLFQEPVPKAALHRHGRLSPRSARARVTVEWLRVRDDGSNRTSLIDSRLVSVHESGWKAFDVTEAVNFWQQLSRPRQPLLLQVSVQREHLGPLASGAHKLVRFASQGAPAGLGEPQLELHTLDLGDYGAQGDCDPEAPMTEGTRCCRQEMYIDLQGMKWAENWVLEPPGFLAYECVGTCRQPPEALAFKWPFLGPRQCIASETDSLPMIVSIKEGGRTRPQVVSLPNMRVQKCSCASDGALVPRRLQP
- organoid formation (frequency, number of colonies) (mammary epithelial cells): increased the number of colonies
- pSMAD2 expression (pSMAD2): significant decrease
- pSMAD5 status (pSMAD5): reduces

B2: BMP7: bone morphogenetic protein 7, BMPR2 ligand (protein)
chain: STGSKQRSQNRSKTPKNQEALRMANVAENSSSDQRQACKKHELYVSFRDLGWQDWIIAPEGYAAYYCEGECAFPLNSYMNATNHAIVQTLVHFINPETVPKPCCAPTQLNAISVLYFDDSSNVILKKYRNMVVRACGCH
- organoid formation (frequency, number of colonies) (mammary epithelial cells): significantly decreased
- organoid size (mammary epithelial cells): significantly decreased
- pSMAD2 expression (pSMAD2): no effect
- pSMAD5 status (pSMAD5): activates pSMAD5
